Measured values as given in patent US8703907B2, “Controlled drug release from dendrimers” (Prolynx LLC, priority 2010, dated 2014).

Tests used:
[1] = in vivo; cited from earlier work
[2] = biological target: T1, GLP1 receptor (Rattus norvegicus, UniProt P32301); assay: GLP1 receptor agonism in membrane or cell-based assays after β-eliminative release; settings: native exendin released by mild base
T1 construct: in membrane or cell-based assays (e.g., RIN-m5f cells, ATCC); host or cells: RIN-m5f cells
T1 sequence (P32301 22-463): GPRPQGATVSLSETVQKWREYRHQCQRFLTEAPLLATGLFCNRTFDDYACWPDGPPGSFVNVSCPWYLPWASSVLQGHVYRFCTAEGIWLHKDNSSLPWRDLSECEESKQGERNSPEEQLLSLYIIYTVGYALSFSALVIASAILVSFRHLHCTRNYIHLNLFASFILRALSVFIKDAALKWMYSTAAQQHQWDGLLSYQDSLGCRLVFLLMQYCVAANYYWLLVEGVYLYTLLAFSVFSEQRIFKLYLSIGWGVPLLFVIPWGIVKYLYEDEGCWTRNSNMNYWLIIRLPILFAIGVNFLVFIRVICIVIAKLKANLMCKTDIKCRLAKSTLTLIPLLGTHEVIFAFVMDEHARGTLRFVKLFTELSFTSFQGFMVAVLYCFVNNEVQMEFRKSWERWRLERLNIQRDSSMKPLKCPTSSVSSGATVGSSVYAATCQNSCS
Procedure: The PEG and PEG-dendrimer conjugates are tested as agonists of the GLP1 receptor in membrane or cell-based assays (e.g., RIN-m5f cells, ATCC as described (Young, A., et al., (2000) WO00/66629) pages 74-75) before and after β-eliminative release of native exendin.

[3] = test system: plasma proteases; settings: cited from earlier work
[4] = β-eliminative cleavage of DNP-Lys carbamates (HPLC); type: physicochemical; settings: after 5 days at 37° C. and pH 7.4
Procedure: A series of model linker scaffolds having a range of functional groups as potential pKa modulators (substituted aromatics, ketones, nitriles, sulfones) were designed, prepared and linked via carbamate bonds to Ne-2,4-dinitrophenyl-L-lysine (Ne-DNP-Lys) for evaluation of release rates; DNP-Lys is water soluble and is a strong chromophore to permit HPLC-UV analysis. Rates of release at pH 7.4 and/or 8.3 were determined.
The DNP carbamates were prepared as follows. A suspension of N-DNP-L-Lys HCl (35 mg, 0.1 mmol) in 600 μL of water was treated successively with 1.0 N NaOH (200 μL) and 1.0 M NaHCO3. A 0.1 M solution of the N—HS carbonate in acetonitrile (1.0 mL) was added to the stirred mixture to give a clear yellow solution. After 1 hr, the mixture was diluted with 10 mL water and loaded onto a Bond-Elut™ C18 extraction column (1 gm). The column was washed successively with water, 1% CF3CO2H/water, water, and 50% MeOH/water. The product was eluted with MeOH, then evaporated to give the product as a yellow glass. Kinetic analyses were performed by HPLC (C18; linear MeOH/water+0.5% HOAc gradient) using a UV/vis monitor. The areas under the DNP and starting material peaks were integrated to determine extent of reaction.
The half-lives for cleavage span 2 hr to >10 days. […]

[5] = hydrolysis of carbamate in 50% human serum; type: in vitro ADME; settings: 1 week at 37° C.
Excerpt: The half-lives for cleavage span 2 hr to >10 days. […] In general, compared to C—H, a) electron withdrawing groups at R^1 increase the rate; b) alkyl groups at R^3 increase the rate; and c) aryl moieties at R^3 decrease the rate.

In the case of GLP-1: glucagon-like peptide 1, the plasma lifetime [1] is listed as roughly 5 min.

In the case of “Exendin-4: 39-amino acid peptide from the Gila monster, agonist of the GLP-1 receptor”, the “activity as GLP1 agonists” value [2] is listed as “full activity”, the half-life [1] is listed as 2.5 h and the “t1/2 against plasma proteases in vitro” value [3] is listed as roughly 10 h.

For O=C(N[C@@H](CCCCNc1ccc([N+](=O)[O-])cc1[N+](=O)[O-])C(=O)O)OCc1ccccc1 [O-benzyl-N—(Ne-2,4-DNP-Lys) carbamate], the cleavage [4] was “less than 0.25%” and the “hydrolysis in 50% human serum” value [5] was “no detectable hydrolysis”.
